Patent US20220127355A1 (INTEGRAL MOLECULAR, published 2022)

T1: Claudin 6 (human) (human, UniProt P56747 1-220)
T1 construct: Expressed on transfected HEK-293T cells or naturally on PA-1 cells for flow cytometry; For the Octet KD values it was the intact protein embedded in virus-like particles (lipoparticles); also called hsCLDN6; CLDN6
T1 chain: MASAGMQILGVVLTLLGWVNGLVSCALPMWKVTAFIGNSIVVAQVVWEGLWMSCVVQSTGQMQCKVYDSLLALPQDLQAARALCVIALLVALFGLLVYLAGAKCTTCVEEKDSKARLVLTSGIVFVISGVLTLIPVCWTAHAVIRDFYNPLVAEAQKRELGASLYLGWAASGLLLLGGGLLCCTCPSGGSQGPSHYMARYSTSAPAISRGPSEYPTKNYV

T2: Claudin 9 (UniProt O95484 1-217)
T2 construct: Octet KD values: intact claudin protein embedded in virus-like particles (lipoparticles); also called CLDN9
T2 sequence (looked up): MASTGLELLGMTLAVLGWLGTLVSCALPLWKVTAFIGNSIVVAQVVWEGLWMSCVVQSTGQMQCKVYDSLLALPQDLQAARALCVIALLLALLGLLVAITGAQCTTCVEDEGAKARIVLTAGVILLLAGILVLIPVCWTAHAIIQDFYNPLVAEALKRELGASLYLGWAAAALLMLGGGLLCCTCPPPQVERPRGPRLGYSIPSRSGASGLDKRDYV


What was measured:
Claudin 6 (human) [1] = target: T1, Claudin 6 (human); assay: binding assay of the 13th table, method not described
Claudin 6 (human) [2] = target: T1, Claudin 6 (human); assay: flow cytometry, 66 nM MAb on HEK-293T cells expressing claudin6
Method: Expression and Binding of claudin6 MAbs. Claudin 6 MAbs produced using their natural light chain, or produced using a different light chain. Yield represents the preparation of the purified MAb and ug of protein resulting from the preparation. Binding represents 66 nM of the indicated MAb binding to HEK-293T cells expressing the target claudin6. The Controls represents the same MAbs staining HEK-293T cells not transfectedwith claudin6. Staining was detected by flow cytometry (geometric mean fluorescence). N/A, not available.

Claudin 9 = target: T2, Claudin 9; assay: biosensor (Forte Octet), intact claudin in virus-like particles (lipoparticles)
Method: Affinity of various antibodies against CLDN6 as compared to CLDN9, CLDN3, and CLDN4 was measured using a biosensor. Biosensor affinity measurement of the various antibodies against the proteins was determined using a Forte Octet, which was used for biosensor measurements, using intact claudin proteins embedded in virus-like particles (lipoparticles). The KD for different antibodies is shown below.

Row | Binder | EC50 (Claudin 6 (human) [1]) [nM] | further results
1 | IM-271-1HBF (antibody, V domains shown, also called CH-HAMF5-1HBF) VH: EVQLLESGGGLVQPGGSLRLSCAASGFTFSSYAMNWVRQAPGKGLEWVAGISSSGRYTGYADSVKGRFTISRDNSKNTLYLQMNSLRAEDTAVYYCAKSVGSGVSWSGYVATSIDAWGQGTLVTVSS VL: SYELTQPPSVSVSPGQTARITCSAGSGLYGWYQQKPGQAPVLVIYGTNKRPSGIPERFSGSSSGTTVTLTISGVQAEDEADYYCGSADSSTNAGIFGGGTKLTVL | < 4 | –
2 | IM-271-1HAQ (antibody, V domains shown, also called CH-HAMF5-1HAQ) VH: EVQLLESGGGLVQPGGSLRLSCAASGFTFSSYAMSWVRQAPGKGLEWVAGISSSGRYTGYADSVKGRFTISRDNSKNTLYLQMNSLRAEDTAVYYCAKSVGNGNSWSGYVATSIDAWGQGTLVTVSS VL: SYELTQPPSVSVSPGQTARITCSGGSGSYGWYQQKPGQAPVLVIYGTNKRPSGIPERFSGSSSGTTVTLTISGVQAEDEADYYCGSADSSTNAGIFGGGTKLTVL | < 4 | –
3 | IM-271-1HBG (antibody, V domains shown, also called CH-HAMF5-1HBG) VH: EVQLLESGGGLVQPGGSLRLSCAASGFTFSSYAMNWVRQAPGKGLEWVAGISSSGRYTGYADSVKGRFTISRDNSKNTLYLQMNSLRAEDTAVYYCAKSMGSGVSWSGYVATSIDAWGQGTLVTVSS VL: SYELTQPPSVSVSPGQTARITCSAGSGLYGWYQQKPGQAPVLVIYGTNKRPSGIPERFSGSSSGTTVTLTISGVQAEDEADYYCGSADSSTNAGIFGGGTKLTVL | < 4 | –
4 | IM-271-1HEP (antibody, V domains shown, T0003 prints the label CH-HAMF5-MEP; Tied by the suffix only; also called CH-HAMF5-1HEP; CH-HAMF5-MEP) VH: EVQLLESGGGLVQPGGSLRLSCAASGFTFSSYAMNWVRQAPGKGLEWVAGISSSGRYTGYADSVKGRFTISRDNSKNTLYLQMNSLRAEDTAVYYCAKSVGSGVSWSGYVATSLDAWGQGTLVTVSS VL: SYELTQPPSVSVSPGQTARITCSAGSGLYGWYQQKPGQAPVLVIYGTNKRPSGIPERFSGSSSGTTVTLTISGVQAEDEADYYCGSADSSTNAGIFGGGTKLTVL | < 4 | –
5 | IM-271-1HFB (antibody, V domains shown, also called CH-HAMF5-1HFB) VH: EVQLLESGGGLVQPGGSLRLSCAASGFTFSSYAMNWVRQAPGKGLEWVAGISSSGRYTGYADSVKGRFTISRDNSKNTLYLQMNSLRAEDTAVYYCAKSMGSGVSWSGYVATSIDAWGQGTLVTVSS VL: SYELTQPPSVSVSPGQTARITCSGGSGSYGWYQQKPGQAPVLVIYGTYKRPSGIPERFSGSSSGTTVTLTISGVQAEDEADYYCGSADSSTNAGIFGGGTKLTVL | < 4 | –
6 | IM-271-1HFJ (antibody, V domains shown, also called CH-HAMF5-1HFJ) VH: EVQLLESGGGLVQPGGSLRLSCAASGFTFSSYAMNWVRQAPGKGLEWVAGISSSGRYTGYADSVKGRFTISRDNSKNTLYLQMNSLRAEDTAVYYCAKSMGSGVSWSGYVATSIDVWGQGTLVTVSS VL: SYELTQPPSVSVSPGQTARITCSAGSGLYGWYQQKPGQAPVLVIYGTNKRPSGIPERFSGSSSGTTVTLTISGVQAEDEADYYCGSADSSTNAGIFGGGTKLTVL | < 4 | –
7 | IM-271-1HGT (antibody, V domains shown, also called CH-HAMF5-1HGT) VH: EVQLLESGGGLVQPGGSLRLSCAASGFTFSSYAMNWVRQAPGKGLEWVAGISSSGRYTGYADSVKGRFTISRDNSKNTLYLQMNSLRAEDTAVYYCAKSVGSGVSWSGYVATSLDVWGQGTLVTVSS VL: SYELTQPPSVSVSPGQTARITCSAGSGLYGWYQQKPGQAPVLVIYGTNKRPSGIPERFSGSSSGTTVTLTISGVQAEDEADYYCGSNDASTNAGIFGGGTKLTVL | < 4 | –
8 | IM-271-1HHP (antibody, V domains shown, also called CH-HAMF5-1HHP) VH: EVQLLESGGGLVQPGGSLRLSCAASGFTFSSYAMNWVRQAPGKGLEWVAGISSSGRYTGYADSVKGRFTISRDNSKNTLYLQMNSLRAEDTAVYYCAKSVGSGVSWSGYVATSLDVWGQGTLVTVSS VL: SYELTQPPSVSVSPGQTARITCSGGSGSYGWYQQKPGQAPVLVIYGTYKRPSGIPERFSGSSSGTTVTLTISGVQAEDEADYYCGSADSSTNAGIFGGGTKLTVL | < 4 | –
9 | IM-271-1HHR (antibody, V domains shown, also called CH-HAMF5-1HHR) VH: EVQLLESGGGLVQPGGSLRLSCAASGFTFSSYAMNWVRQAPGKGLEWVAGISSSGRYTGYADSVKGRFTISRDNSKNTLYLQMNSLRAEDTAVYYCAKSMGSGVSWSGYVATSLDVWGQGTLVTVSS VL: SYELTQPPSVSVSPGQTARITCSGGSGSYGWYQQKPGQAPVLVIYGTYKRPSGIPERFSGSSSGTTVTLTISGVQAEDEADYYCGSADSSTNAGIFGGGTKLTVL | < 4 | –
10 | IM180 (antibody, V domains shown, Produced with its natural light chain) VH: EVQLLESGGGLVQPGGSLRLSCAASGFDFSSYAMNWVRQAPGKGLEWVAGIGSTGSSTGYADSVKGRFTISRDNSKNTLYLQMNSLRAEDTAVYYCAKSVGNGNSWSGYIATSIDAWGQGTLVTVSS VL: SYELTQPPSVSVSPGQTARITCSGGSSGYGWYQQKPGQAPVLVIYSNDKRPSGIPERFSGSSSGTTVTLTISGVQAEDEADYYCGSTDNSYVGIFGGGTKLTVL | – | Binding (geometric mean fluorescence) (Claudin 6 (human) [2]): 46900 geometric mean fluorescence
11 | IM180 w/ F10h cLC (antibody, V domains shown, IM180 heavy chain paired with the common light chain F10h) VH: EVQLLESGGGLVQPGGSLRLSCAASGFDFSSYAMNWVRQAPGKGLEWVAGIGSTGSSTGYADSVKGRFTISRDNSKNTLYLQMNSLRAEDTAVYYCAKSVGNGNSWSGYIATSIDAWGQGTLVTVSS VL: SYELTQPPSVSVSPGQTARITCSGGYNGHYGWYQQKPGQAPVLVIYSNNQRPSGIPERFSGSSSGTTVTLTISGVQAEDEADYYCGGYDSSAGIFGGGTKLTVL | – | Binding (geometric mean fluorescence) (Claudin 6 (human) [2]): 10100 geometric mean fluorescence
12 | IM271 w/ F10h cLC (antibody, V domains shown, IM271 heavy chain paired with the common light chain F10h) VH: EVQLLESGGGLVQPGGSLRLSCAASGFTFSSYAMSWVRQAPGKGLEWVAGISSSGRYTGYADSVKGRFTISRDNSKNTLYLQMNSLRAEDTAVYYCAKSVGNGNSWSGYIATSIDAWGQGTLVTVSS VL: SYELTQPPSVSVSPGQTARITCSGGYNGHYGWYQQKPGQAPVLVIYSNNQRPSGIPERFSGSSSGTTVTLTISGVQAEDEADYYCGGYDSSAGIFGGGTKLTVL | – | Binding (geometric mean fluorescence) (Claudin 6 (human) [2]): 160000 geometric mean fluorescence
13 | IM-35-N1F09-1HA (antibody, V domains shown) VH: EVQLLESGGGLVQPGGSLRLSCAASGFTFSSYGMSWVRQAPGKGLEWVAGIGSSGIYTHYADSVKGRFTISRDNSKNTLYLQMNSLRAEDTAVYYCAKSPGDSDWCGWAGYGIYSCRVAGFIDAWGQGTLVTVSS VL: SYELTQPPSVSVSPGQTARITCSGGYNGHYGWYQQKPGQAPVLVIYGTNKRPSGIPERFSGSSSGTTVTLTISGVQAEDEADYYCGGYDSSAGIFGGGTKLTVL | < 4 | –
14 | IM-35-N2H07-1HA (antibody, V domains shown) VH: EVQLLESGGGLVQPGGSLRLSCAASGFTFSGYAMSWVRQAPGKGLEWVAGIYSSGSYTFYADSVKGRFTISRDNSKNTLYLQMNSLRAEDTAVYYCAKGTGYCDWSGWCYSGAANIDAWGQGTLVTVSS VL: SYELTQPPSVSVSPGQTARITCSGGSGSYGYYGWYQQKPGQAPVLVIYGTNKRPSGIPERFSGSSSGTTVTLTISGVQAEDEADYYCGSEDSSSGAGIFGGGTKLTVL | < 4 | –
15 | IM172 (antibody, V domains shown, Detected with anti-human IgG Fc secondary) VH: AVTLDESGGGLQTPGGALSLVCKGSGFSISSYTMQWVRQAPGKGLEWVAGIYSGSRTYYGAAVQGRATISRDNGQSTVRLQLNNLRAEDTGTYYCAKSSYCTAWTGCDVYAGGSIDAWGHGTEVIVSS VL: ALTQPSSVSATPGGTVEITCSGDSSDDGSYYYGWYQQKSPGSAPVTVIYSNDKRPSSIPSRFSGSASGSTATLTITGVQADDEAVYFCGSYDSSTGIFGAGTTLTVL | – | Kd (Claudin 9): 81 nM
